± gives the uncertainty stated by the source.

The data set in a line: self-splicing fitness, log relative to wild type (ln ratio); higher = more splicing; Tetrahymena group I intron in knt gene, E. coli kanamycin selection, DiMSum; sequences stand for … in CUCUCU…GGAGGGAAAAGUUAUCAGGCAUGCACCUGGUAGCUAGUCUUUAAACCAAUAGAUUGCAUCGGUUUAAAAGGCAAGACCGUCAAAUUGCGGGAAAGGGGUCAACAGCCGUUCAGUACCAAGUCUCAGGGGAAACUUUGAGAUGGCCUUGCAAAGGGUAUGGUAAUAAGCUGACGGACAUGGUCCUAACCACGCAGCCAAGUCCUAAGUCAACAGAUCUUCUGUUGAUAUGGAUGCAGUUCACAGACUAAAUGUCGGUCGGGGAAGAUGUAUUCUUCUCAUAAGAUAUAGUCGGACCUCUCCUUAAUGGGAGCUAGCGGAUGAAGUGAUGCAACACUGGAGCCGCUGGGAACUAAUUUGUAUGCGAAAGUAUAUUGAUUAGUUUUGGAGUACUCGUGGUCG
In outline:
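Pooled colonies went to amplicon sequencing on an Illumina HiSeq 2500 after six replicate transformations. The plates were LB agar with 100 μg/mL carbenicillin, 50 μM IPTG and 0.2% rhamnose, with or without 25 μg/mL kanamycin, incubated overnight at 37°C or 30°C. The E. coli BL21(DE3) library had all eight P1ex-region intron nucleotides randomised, the intron placed in the knt kanamycin-resistance gene on pET-22b(+). DiMSum fitness is the error-weighted combination of replicate fold changes, kanamycin against none, normalised to wild type.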

With GCUGAGCAAUAUUACGACUU, the “self-splicing fitness (ln)” value by setting is: (30 °C) -1.64 ± 0.14; (37 °C) 0.471 ± 0.14. With ACAGAGCAAUAUUACGUAGC, the “self-splicing fitness (ln)” value was -3.27 ± 0.33 (30 °C) and -2.56 ± 0.41 (37 °C). For the sequence GGGCAGCAAUAUUACGGUGU, the “self-splicing fitness (ln)” value reads like this: (30 °C) -2.02 ± 0.1; (37 °C) -1.21 ± 0.099.

For the sequence AAUCAGCAAUAUUACGUAGG, the “self-splicing fitness (ln)” value was -1.61 ± 0.056 (30 °C) and -0.958 ± 0.077 (37 °C). UGCAAGCAAUAUUACGCACU: the “self-splicing fitness (ln)” value (30 °C) was -2.92 ± 0.13 and the “self-splicing fitness (ln)” value (37 °C) is -1.28 ± 0.1.

As to UGAGAGCAAUAUUACGGGGC, the “self-splicing fitness (ln)” value by setting is: (30 °C) -2.38 ± 0.39; (37 °C) -2.17 ± 0.46. On the same counts, the results for UUUUAGCAAUAUUACGUGUA are -2.96 ± 0.27 and -1.84 ± 0.17. On the same counts, the results for AUCCAGCAAUAUUACGCCUG are -3.86 ± 0.26 and -2.09 ± 0.16. Turning to GCGAAGCAAUAUUACGAGAC, the “self-splicing fitness (ln)” value was -2.67 ± 0.26 (30 °C) and -1.46 ± 0.25 (37 °C). Take ACGGAGCAAUAUUACGGGGC: the “self-splicing fitness (ln)” value reads like this: (30 °C) -3.39 ± 0.35; (37 °C) -3.86 ± 0.46. For the sequence AACCAGCAAUAUUACGCUUC, the “self-splicing fitness (ln)” value was -4.25 ± 0.16 (30 °C) and -2.3 ± 0.11 (37 °C). Take GAAGAGCAAUAUUACGUCAC: where the note is “37 °C”, the “self-splicing fitness (ln)” value is -2.13 ± 0.23. In the case of AACGAGCAAUAUUACGCGUA, the “self-splicing fitness (ln)” value is, setting by setting: (30 °C) -2.19 ± 0.19; (37 °C) -1.72 ± 0.18. Regarding GAAAAGCAAUAUUACGAUCC, the “self-splicing fitness (ln)” value is, setting by setting: (30 °C) -1 ± 0.11; (37 °C) -0.724 ± 0.15. On the same counts, the results for GUCGAGCAAUAUUACGGAGC are -2.93 ± 0.2 and -1.24 ± 0.15. Turning to GUCUAGCAAUAUUACGUUUC, the “self-splicing fitness (ln)” value (30 °C) is -0.78 ± 0.057 and the “self-splicing fitness (ln)” value (37 °C) was -0.0328 ± 0.073.

As for UUAUAGCAAUAUUACGCGAU, the “self-splicing fitness (ln)” value is -2.8 ± 0.37 (30 °C) and -2.23 ± 0.46 (37 °C).

Take UAAUAGCAAUAUUACGGAGU: the “self-splicing fitness (ln)” value (30 °C) was -4.07 ± 0.27 and the “self-splicing fitness (ln)” value (37 °C) is -2.82 ± 0.22.

Take GCGGAGCAAUAUUACGAGUC: the “self-splicing fitness (ln)” value (37 °C) was -1.09 ± 0.45. UAAGAGCAAUAUUACGUCCA: the “self-splicing fitness (ln)” value runs as follows: (30 °C) -3.08 ± 0.34; (37 °C) -2.4 ± 0.41.

As for UCAAAGCAAUAUUACGCAAA, the “self-splicing fitness (ln)” value (30 °C) is -2.5 ± 0.23 and the “self-splicing fitness (ln)” value (37 °C) was -2.19 ± 0.31. As to GUACAGCAAUAUUACGCUCC, the “self-splicing fitness (ln)” value runs as follows: (30 °C) -1.81 ± 0.29; (37 °C) -0.404 ± 0.23. As for UCUCAGCAAUAUUACGUUGU, the “self-splicing fitness (ln)” value is, setting by setting: (30 °C) -3.71 ± 0.21; (37 °C) -3.39 ± 0.21.

Consider UCGAAGCAAUAUUACGGAUA, for which the “self-splicing fitness (ln)” value is -1.08 ± 0.15 (30 °C) and -1.15 ± 0.19 (37 °C). The corresponding values for AUGCAGCAAUAUUACGGGCG are 0.108 ± 0.089 and 0.464 ± 0.11.

Turning to UCGCAGCAAUAUUACGCAAA, the “self-splicing fitness (ln)” value was -2.05 ± 0.13 (30 °C) and -1.53 ± 0.11 (37 °C). Take AUUAAGCAAUAUUACGGCCA: the “self-splicing fitness (ln)” value by setting is: (30 °C) -0.171 ± 0.12; (37 °C) -0.598 ± 0.12. With CGAAAGCAAUAUUACGUUAU, the “self-splicing fitness (ln)” value is, setting by setting: (30 °C) -3.68 ± 0.31; (37 °C) -3.5 ± 0.29. Regarding CUGGAGCAAUAUUACGCGGU, the “self-splicing fitness (ln)” value is, setting by setting: (30 °C) -1.94 ± 0.1; (37 °C) -2.46 ± 0.24.

Regarding GAAAAGCAAUAUUACGCAAU, the “self-splicing fitness (ln)” value (30 °C) was -2.28 ± 0.12 and the “self-splicing fitness (ln)” value (37 °C) was -1.41 ± 0.17. The corresponding values for GUAUAGCAAUAUUACGCGAA are -2.01 ± 0.36 and -0.808 ± 0.23. For the sequence UAAAAGCAAUAUUACGUUAA, the “self-splicing fitness (ln)” value (30 °C) is -2.14 ± 0.15 and the “self-splicing fitness (ln)” value (37 °C) is -1.38 ± 0.13. The corresponding values for ACUCAGCAAUAUUACGUCGC are -2.57 ± 0.24 and -0.332 ± 0.17. The corresponding values for GCUCAGCAAUAUUACGAACC are -1.34 ± 0.22 and 0.355 ± 0.23. On the same counts, the results for AUCCAGCAAUAUUACGUGUC are -3.34 ± 0.16 and -2.24 ± 0.14. Regarding CUCUAGCAAUAUUACGUCAG, the “self-splicing fitness (ln)” value is -2.85 ± 0.23 (30 °C) and -2.34 ± 0.32 (37 °C). For GUACAGCAAUAUUACGAAGC, the “self-splicing fitness (ln)” value by setting is: (30 °C) -1.83 ± 0.17; (37 °C) -1.5 ± 0.28. Take CUCGAGCAAUAUUACGCUAA: under “37 °C”, the “self-splicing fitness (ln)” value was -2.34 ± 0.36. In the case of ACCUAGCAAUAUUACGGGGC, the “self-splicing fitness (ln)” value is -3.06 ± 0.15 (30 °C) and -1.66 ± 0.15 (37 °C). In the case of AAGGAGCAAUAUUACGUUAU, the “self-splicing fitness (ln)” value (30 °C) was -2.99 ± 0.2 and the “self-splicing fitness (ln)” value (37 °C) is -1.59 ± 0.22. The corresponding values for AGGCAGCAAUAUUACGCCUG are -1.78 ± 0.14 and -0.748 ± 0.14. As to CUACAGCAAUAUUACGGCCU, the “self-splicing fitness (ln)” value by setting is: (30 °C) -4.36 ± 0.33; (37 °C) -1.68 ± 0.21. For GUUGAGCAAUAUUACGUUGU, the “self-splicing fitness (ln)” value reads like this: (30 °C) -3.09 ± 0.23; (37 °C) -1.68 ± 0.17. The corresponding values for CGAUAGCAAUAUUACGAUUU are -2.52 ± 0.14 and -0.871 ± 0.14.

With UAUGAGCAAUAUUACGCCUA, the “self-splicing fitness (ln)” value (30 °C) was -1.59 ± 0.18 and the “self-splicing fitness (ln)” value (37 °C) is -0.615 ± 0.21. As for CGCCAGCAAUAUUACGGUUG, the “self-splicing fitness (ln)” value was -3.7 ± 0.17 (30 °C) and -1.78 ± 0.15 (37 °C). As for AGUUAGCAAUAUUACGUGAU, the “self-splicing fitness (ln)” value reads like this: (30 °C) -3.08 ± 0.21; (37 °C) -1.19 ± 0.18. On the same counts, the results for GAGCAGCAAUAUUACGUGGC are -3.71 ± 0.27 and -1.63 ± 0.14.

Take GUGCAGCAAUAUUACGUAAC: the “self-splicing fitness (ln)” value (30 °C) is -1.63 ± 0.15 and the “self-splicing fitness (ln)” value (37 °C) is -0.239 ± 0.14.

Consider CGCAAGCAAUAUUACGACCA, for which the “self-splicing fitness (ln)” value (30 °C) was -0.724 ± 0.1 and the “self-splicing fitness (ln)” value (37 °C) was -0.453 ± 0.12. On the same counts, the results for AGGAAGCAAUAUUACGUUUA are -2.27 ± 0.12 and -1.8 ± 0.14.

In the case of GUUCAGCAAUAUUACGACCA, the “self-splicing fitness (ln)” value (30 °C) is -0.964 ± 0.14 and the “self-splicing fitness (ln)” value (37 °C) is -0.856 ± 0.13. AAUCAGCAAUAUUACGAUGG: the “self-splicing fitness (ln)” value was -1.49 ± 0.1 (30 °C) and -0.853 ± 0.12 (37 °C). The corresponding values for CGCCAGCAAUAUUACGUAUA are -4.14 ± 0.23 and -3.42 ± 0.23. Consider AGCCAGCAAUAUUACGGUGA, for which the “self-splicing fitness (ln)” value reads like this: (30 °C) -1.82 ± 0.091; (37 °C) -1.2 ± 0.089. With AGCGAGCAAUAUUACGGUCG, the “self-splicing fitness (ln)” value was -2.52 ± 0.12 (30 °C) and -1.86 ± 0.13 (37 °C). On the same counts, the results for GACAAGCAAUAUUACGUUUU are -2.69 ± 0.076 and -1.97 ± 0.1. Regarding UAACAGCAAUAUUACGCUCG, the “self-splicing fitness (ln)” value (30 °C) was -0.803 ± 0.096 and the “self-splicing fitness (ln)” value (37 °C) is -0.212 ± 0.098. Regarding AUGGAGCAAUAUUACGACUG, where the note is “30 °C”, the “self-splicing fitness (ln)” value is -2.28 ± 0.3. As to UCAAAGCAAUAUUACGCGCC, the “self-splicing fitness (ln)” value is -2.36 ± 0.24 (30 °C) and -1.24 ± 0.28 (37 °C). Regarding ACGGAGCAAUAUUACGCUAA, the “self-splicing fitness (ln)” value (37 °C) was determined as 0.642 ± 0.24. On to CAAAAGCAAUAUUACGUCUA, for which the “self-splicing fitness (ln)” value runs as follows: (30 °C) -1.75 ± 0.097; (37 °C) -0.725 ± 0.083.

UGGUAGCAAUAUUACGUGCA: the “self-splicing fitness (ln)” value is, setting by setting: (30 °C) -0.653 ± 0.11; (37 °C) -1.27 ± 0.1. In the case of CGUAAGCAAUAUUACGCUGG, the “self-splicing fitness (ln)” value by setting is: (30 °C) -1.56 ± 0.12; (37 °C) -0.793 ± 0.11.

With ACCCAGCAAUAUUACGAGGU, the “self-splicing fitness (ln)” value was -3.8 ± 0.12 (30 °C) and -2.93 ± 0.14 (37 °C).

In the case of AACAAGCAAUAUUACGUCCC, the “self-splicing fitness (ln)” value was -0.608 ± 0.12 (30 °C) and -0.718 ± 0.17 (37 °C). Consider CCUAAGCAAUAUUACGAAAG, for which the “self-splicing fitness (ln)” value is, setting by setting: (30 °C) -1.75 ± 0.18; (37 °C) 0.000192 ± 0.18. Turning to CGGGAGCAAUAUUACGCGUG, the “self-splicing fitness (ln)” value was -3.47 ± 0.18 (30 °C) and -1.65 ± 0.13 (37 °C). The corresponding values for UGACAGCAAUAUUACGCACG are -0.996 ± 0.093 and -0.312 ± 0.14. The corresponding values for UGGAAGCAAUAUUACGGCCU are -0.816 ± 0.11 and -0.639 ± 0.13. The corresponding values for UUAUAGCAAUAUUACGCACG are -1.18 ± 0.15 and -0.14 ± 0.18. Regarding CUCGAGCAAUAUUACGAUUA, the “self-splicing fitness (ln)” value by setting is: (30 °C) -3.13 ± 0.3; (37 °C) -2.56 ± 0.26. For the sequence GUGGAGCAAUAUUACGGUCC, the “self-splicing fitness (ln)” value is, setting by setting: (30 °C) -2.12 ± 0.19; (37 °C) -1.91 ± 0.24.

Take CCGAAGCAAUAUUACGUACA: the “self-splicing fitness (ln)” value (30 °C) is -3.19 ± 0.43 and the “self-splicing fitness (ln)” value (37 °C) was -1.75 ± 0.34. Regarding UUGGAGCAAUAUUACGUACC, the “self-splicing fitness (ln)” value by setting is: (30 °C) -3.52 ± 0.43; (37 °C) -2.01 ± 0.44. Take GAGAAGCAAUAUUACGCGAC: the “self-splicing fitness (ln)” value was -2.78 ± 0.17 (30 °C) and -1.38 ± 0.15 (37 °C).

The values above are taken from the supplement of paper PMC7877785.
